One may read the stoichiometry N as a count of units in the complex or per binding partner. In general, Kd refers to the constant that tells how readily two partners part at equilibrium. A lower Kd goes with a tighter complex.

Several values for one entry are separate records, joined by “and”; a condition that tells them apart may be missing. Equal entries are not always repeated.

The values below come from PMC10123104, “YbiB: a novel interactor of the GTPase ObgE” (Nucleic Acids Research, 2023).

B2: YbiB (E. coli TrpD2 protein), N-terminally His6-tagged, wild type (natural protein, UniProt P30177 1-320, looked up)
chain: MDYRKIIKEIGRGKNHARDLDRDTARGLYAHMLNGEVPDLELGGVLIALRIKGEGEAEMLGFYEAMQNHTIKLTPPAGKPMPIVIPSYNGARKQANLTPLLAILLHKLGFPVVVHGVSEDPTRVLTETIFELMGITPTLHGGQAQAKLDEHQPVFMPVGAFCPPLEKQLAMRWRMGVRNSAHTLAKLATPFAEGEALRLSSVSHPEYIGRVAKFFSDIGGRALLMHGTEGEVYANPQRCPQINLIDREGMRVLYEKQDTAGSELLPQAKDPETTAQWIERCLAGSEPIPESLKIQMACCLVATGEAATISDGLARVNQAF
notes: YbiB, TrpD2 family protein of Escherichia coli, open reading frame amplified from BW25113 genomic DNA; cloned in pET28a (NheI/EcoRI) behind His6 and a thrombin site; its numbers there are shifted by 1; No thrombin cleavage is described; also called YbiB WT; YbiB dimer; source: E. coli BL21 (DE3) pLysS, purified (HisTrap FF, Superdex 200); not shown: His6, N-terminal, kept
B3: full-length E. coli YbiB protein, N-terminally His6-tagged (natural protein, UniProt P30177 1-320, looked up)
chain: MDYRKIIKEIGRGKNHARDLDRDTARGLYAHMLNGEVPDLELGGVLIALRIKGEGEAEMLGFYEAMQNHTIKLTPPAGKPMPIVIPSYNGARKQANLTPLLAILLHKLGFPVVVHGVSEDPTRVLTETIFELMGITPTLHGGQAQAKLDEHQPVFMPVGAFCPPLEKQLAMRWRMGVRNSAHTLAKLATPFAEGEALRLSSVSHPEYIGRVAKFFSDIGGRALLMHGTEGEVYANPQRCPQINLIDREGMRVLYEKQDTAGSELLPQAKDPETTAQWIERCLAGSEPIPESLKIQMACCLVATGEAATISDGLARVNQAF
notes: homodimer; No cleavage of the His6-tag is told; the pull-down names the tag on the protein; also called YbiB WT; TrpD2 protein YbiB; source: E. coli BL21 (DE3) pLysS, purified (HisTrap, SEC); not shown: His6, N-terminal, kept
B7: ObgE C-terminal peptide4-AA (peptide)
peptide: LEEIAEEDDEDADDDADEDD
notes: free termini (H-...-OH); also called SBL-OBGE-06; source: synthetic peptide (in-house Fmoc SPPS, HPLC purified)

For series [1], the target named is T1, ObgE (E. coli Obg GTPase), N-terminally His6-tagged (E. coli, UniProt P42641 1-390).
T1 construct: GTPase ObgE (Obg) of Escherichia coli, 390 residues; also called pET28a-obgE; source: E. coli BL21 (DE3) pLysS, purified (HisTrap FF, alkaline phosphatase treatment, Superdex 75), nucleotide-free; not shown: His6, N-terminal, kept
In words: ITC; MicroCal iTC200, 25°C, 20 mM HEPES pH 7.5, 150 mM NaCl, 5 mM MgCl2, 1 mM β-mercaptoethanol; ObgE or ObgE-derived peptide in the sample cell (50-75 µM), YbiB (WT or mutant) in the syringe (500 µM-1.4 mM); 'ligand in cell' function; biphasic isotherms fitted on a 'two sets of sites' model; subunit concentrations; parameters of each individual repeat. The note with it: both partners purified. (In ITC the heat of successive injections is recorded.)

The target in series [2] is B7. Described as above. The following applies: both partners purified.
Series [3] concerns the molecule itself. In words: SEC-MALS; Superdex 200 5/150 GL increase; ObgE and YbiB alone at 1.5 mg/ml; YbiB and ObgE mixed 1:3 (20 and 60 μM); 20 mM HEPES pH 7.5, 150 mM NaCl, 5 mM MgCl2, 5% glycerol, 2 mM DTT.
In series [4] the target is T2, N-terminally His6-tagged ObgE protein (Escherichia coli Obg) (E. coli, UniProt P42641 1-390).
T2 construct: GTPase ObgE of Escherichia coli, whole protein, ORF in pET28a; monomer by SEC-MALS; nucleotide-free after alkaline phosphatase treatment; also called full-length ObgE; not shown: His6, N-terminal, kept
The series is described as above. The note with it: both partners purified.

For series [5], the target named is T2, N-terminally His6-tagged ObgE protein …. In words: SEC-SAXS; pre-formed YbiB-ObgE complex (mixed 1:3, isolated on Superdex 200, 7.6 mg/ml); 20 mM HEPES pH 7.5, 150 mM NaCl, 5 mM MgCl2, 2 mM DTT, 5% glycerol; molar mass by Bayesian inference. The following applies: both partners purified. (SEC sorts molecules by how far they enter the pores of the column.)
Series [6] shares this target. In words: ITC; YbiB in the syringe (500 μM to 1.4 mM) titrated into ObgE constructs or ObgE-derived peptides in the cell (50-75 μM); 25°C; 20 mM HEPES pH 7.5, 150 mM NaCl, 5 mM MgCl2, 1 mM β-mercaptoethanol; 'two sets of sites' model with 'ligand in cell' for biphasic isotherms; subunit concentrations. The following applies: both partners purified.
The target of series [7] is B3. The series is described as above. The following applies: both partners purified.
The target of series [8] is B2. In words: ITC; MicroCal iTC200, 25°C, 20 mM HEPES pH 7.5, 150 mM NaCl, 5 mM MgCl2, 1 mM β-mercaptoethanol; ObgE or ObgE-derived peptide in the sample cell (50-75 µM), YbiB (WT or mutant) in the syringe (500 µM-1.4 mM); 'ligand in cell' function; biphasic isotherms fitted on a 'two sets of sites' model; subunit concentrations; parameters of each individual repeat. The following applies: both partners purified.

T1 sequence (P42641 whole entry): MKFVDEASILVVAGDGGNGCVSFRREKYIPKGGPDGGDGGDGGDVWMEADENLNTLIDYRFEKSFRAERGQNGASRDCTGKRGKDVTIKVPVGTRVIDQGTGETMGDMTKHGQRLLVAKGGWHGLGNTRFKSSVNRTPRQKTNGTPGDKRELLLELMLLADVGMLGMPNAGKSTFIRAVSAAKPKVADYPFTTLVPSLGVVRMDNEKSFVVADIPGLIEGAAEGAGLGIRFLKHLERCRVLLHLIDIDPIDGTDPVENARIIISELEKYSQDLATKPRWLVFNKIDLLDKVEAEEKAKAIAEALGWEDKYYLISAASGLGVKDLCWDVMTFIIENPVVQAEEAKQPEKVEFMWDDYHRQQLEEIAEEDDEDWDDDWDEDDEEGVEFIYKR
T2 sequence (P42641 whole entry): as above

B1: YbiB Arg92Glu, N-terminally His6-tagged (natural protein, E. coli, UniProt P30177 1-320, looked up)
chain: MDYRKIIKEIGRGKNHARDLDRDTARGLYAHMLNGEVPDLELGGVLIALRIKGEGEAEMLGFYEAMQNHTIKLTPPAGKPMPIVIPSYNGAEKQANLTPLLAILLHKLGFPVVVHGVSEDPTRVLTETIFELMGITPTLHGGQAQAKLDEHQPVFMPVGAFCPPLEKQLAMRWRMGVRNSAHTLAKLATPFAEGEALRLSSVSHPEYIGRVAKFFSDIGGRALLMHGTEGEVYANPQRCPQINLIDREGMRVLYEKQDTAGSELLPQAKDPETTAQWIERCLAGSEPIPESLKIQMACCLVATGEAATISDGLARVNQAF
notes: no measurement of its oligomeric state is reported; also called YbiB R92E; pET28a-ybiBR92E; source: E. coli BL21 (DE3) pLysS, purified (HisTrap FF, Superdex 200); not shown: His6, N-terminal, kept
Consider B1, for which the “stoichiometry N” value in series [1] was 0.71 and 0.94 and 1.29.

With B2, the “stoichiometry N” value in series [2] was 0.66 and 0.632 and 0.64.

As to B3, the “stoichiometry N” value in series [3] is 2; in series [4], roughly 2 ObgE per YbiB dimer; in series [5], 2 ObgE per YbiB dimer. Moreover, the “KD of the first (high-affinity) binding event, two sets of sites” value in series [6] came to 0.022 ± 0.001 µM. The “KD of the second (low-affinity) binding event, two sets of sites” value in series [6] was 5 ± 1 µM.

B4: YbiB Arg123Glu, N-terminally His6-tagged (natural protein, E. coli, UniProt P30177 1-320, looked up)
chain: MDYRKIIKEIGRGKNHARDLDRDTARGLYAHMLNGEVPDLELGGVLIALRIKGEGEAEMLGFYEAMQNHTIKLTPPAGKPMPIVIPSYNGARKQANLTPLLAILLHKLGFPVVVHGVSEDPTEVLTETIFELMGITPTLHGGQAQAKLDEHQPVFMPVGAFCPPLEKQLAMRWRMGVRNSAHTLAKLATPFAEGEALRLSSVSHPEYIGRVAKFFSDIGGRALLMHGTEGEVYANPQRCPQINLIDREGMRVLYEKQDTAGSELLPQAKDPETTAQWIERCLAGSEPIPESLKIQMACCLVATGEAATISDGLARVNQAF
notes: no measurement of its oligomeric state is reported; also called YbiB R123E; pET28a-ybiBR123E; source: E. coli BL21 (DE3) pLysS, purified (HisTrap FF, Superdex 200); not shown: His6, N-terminal, kept
Regarding B4, in series [1], the dissociation constant (Kd) is 5 µM and 4 µM and 10 µM; the “stoichiometry N” value is 1.14 and 0.99.

B5: peptide4-AA (variant of ObgE peptide4 with both Trp residues substituted by Ala) (peptide, UniProt P42641 361-380, looked up)
peptide: LEEIAEEDDEDADDDADEDD
notes: source: synthetic peptide (Fmoc SPPS, HPLC purified)
B5 yielded a Kd in series [7] of roughly 10 µM.

B6: ObgE C-terminal peptide4 (residues 361-380 of ObgE) (peptide)
peptide: LEEIAEEDDEDWDDDWDEDD
notes: residues 375-380 (DWDEDD) are resolved in the crystal structure; also called peptide4-WW; SBL-OBGE-03; source: synthetic peptide (Fmoc SPPS, HPLC purified)
B6: the binding result in series [7] is listed as “binds”.

B7: in series [8], the Kd was 10 µM and 15 µM.
